T1: Brr1Δ(122-197) with N-terminal His6-TEV tag (S. cerevisiae, UniProt Q99177 1-341, Δ(122-197))
T1 sequence (looked up): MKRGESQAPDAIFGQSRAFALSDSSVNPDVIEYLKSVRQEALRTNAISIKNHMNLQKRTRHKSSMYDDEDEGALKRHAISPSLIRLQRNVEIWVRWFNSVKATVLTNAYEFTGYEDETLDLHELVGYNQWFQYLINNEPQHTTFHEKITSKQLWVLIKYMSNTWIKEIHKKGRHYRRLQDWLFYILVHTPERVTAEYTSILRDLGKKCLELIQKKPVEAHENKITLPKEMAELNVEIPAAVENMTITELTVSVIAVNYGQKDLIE

T2: D1/D2/F/E/G pentamer (5Sm) (S. cerevisiae, UniProt Q02260 1-109; Q06217 1-110; P54999 1-86; Q12330 1-94; P40204 1-77)
T2 sequence (looked up) 1: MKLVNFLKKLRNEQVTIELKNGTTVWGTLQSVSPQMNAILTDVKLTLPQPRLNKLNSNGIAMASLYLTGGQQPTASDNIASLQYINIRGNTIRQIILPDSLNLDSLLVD
T2 sequence (looked up) 2: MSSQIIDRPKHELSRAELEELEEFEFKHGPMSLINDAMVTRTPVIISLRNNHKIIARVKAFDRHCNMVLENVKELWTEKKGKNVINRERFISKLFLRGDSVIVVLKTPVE
T2 sequence (looked up) 3: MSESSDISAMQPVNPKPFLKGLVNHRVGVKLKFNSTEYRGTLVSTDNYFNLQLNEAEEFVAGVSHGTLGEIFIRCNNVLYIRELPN
T2 sequence (looked up) 4: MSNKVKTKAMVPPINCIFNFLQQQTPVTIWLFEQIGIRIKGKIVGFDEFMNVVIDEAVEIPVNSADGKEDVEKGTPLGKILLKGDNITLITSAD
T2 sequence (looked up) 5: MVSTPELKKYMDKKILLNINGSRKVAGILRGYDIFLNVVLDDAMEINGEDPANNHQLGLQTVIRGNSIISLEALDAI

T3: Brr1/5Sm heterohexamer (S. cerevisiae, UniProt Q99177 1-341; Q02260 1-109; Q06217 1-110; P54999 1-86; Q12330 1-94; P40204 1-77)
T3 sequence (looked up) 1: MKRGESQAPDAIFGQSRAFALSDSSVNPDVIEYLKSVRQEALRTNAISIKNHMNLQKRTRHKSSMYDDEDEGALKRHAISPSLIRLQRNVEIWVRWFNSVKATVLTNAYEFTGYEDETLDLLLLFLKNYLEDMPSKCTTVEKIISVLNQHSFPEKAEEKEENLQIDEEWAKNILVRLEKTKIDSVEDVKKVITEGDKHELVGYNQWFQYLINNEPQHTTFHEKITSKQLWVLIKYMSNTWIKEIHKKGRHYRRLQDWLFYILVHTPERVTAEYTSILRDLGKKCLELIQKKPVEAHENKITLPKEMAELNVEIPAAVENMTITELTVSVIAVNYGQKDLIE
T3 sequence (looked up) 2: T2 sequence (looked up) 1
T3 sequence (looked up) 3: T2 sequence (looked up) 2
T3 sequence (looked up) 4: T2 sequence (looked up) 3
T3 sequence (looked up) 5: T2 sequence (looked up) 4
T3 sequence (looked up) 6: T2 sequence (looked up) 5

T4: full-length Lot5 with N-terminal His6-TEV tag (S. cerevisiae, UniProt P34234 1-306)
T4 sequence (looked up): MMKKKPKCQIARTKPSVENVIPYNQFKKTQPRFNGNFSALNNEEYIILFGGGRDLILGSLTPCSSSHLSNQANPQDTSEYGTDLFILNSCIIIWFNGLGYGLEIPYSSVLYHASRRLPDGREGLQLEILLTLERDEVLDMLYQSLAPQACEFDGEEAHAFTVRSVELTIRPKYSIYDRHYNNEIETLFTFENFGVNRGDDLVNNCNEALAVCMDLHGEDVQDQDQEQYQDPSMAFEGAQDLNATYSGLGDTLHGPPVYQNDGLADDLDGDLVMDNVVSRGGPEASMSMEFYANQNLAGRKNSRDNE

B1: SmF/E/G subcomplex, HT-tag removed (complex, S. cerevisiae)
chain 1: T2 sequence (looked up) 3
chain 2: T2 sequence (looked up) 4
chain 3: T2 sequence (looked up) 5
B2: Lot5 (residues 1-227) with N-terminal His6-TEV tag (domain or fragment, S. cerevisiae, UniProt P34234 1-227, looked up)
chain: MMKKKPKCQIARTKPSVENVIPYNQFKKTQPRFNGNFSALNNEEYIILFGGGRDLILGSLTPCSSSHLSNQANPQDTSEYGTDLFILNSCIIIWFNGLGYGLEIPYSSVLYHASRRLPDGREGLQLEILLTLERDEVLDMLYQSLAPQACEFDGEEAHAFTVRSVELTIRPKYSIYDRHYNNEIETLFTFENFGVNRGDDLVNNCNEALAVCMDLHGEDVQDQDQEQ
B3: SmD1/D2 subcomplex, HT-tag removed (complex, S. cerevisiae)
chain 1: T2 sequence (looked up) 1
chain 2: T2 sequence (looked up) 2
B4: SmD3/B subcomplex, HT-tag removed (complex, S. cerevisiae)
chain 1: MSKIQVAHSSRLANLIDYKLRVLTQDGRVYIGQLMAFDKHMNLVLNECIEERVPKTQLDKLRPRKDSKDGTTLNIKVEKRVLGLTILRGEQILSTVVEDKPLLSK
chain 2: MTMNGIPVKLLNEAQGHIVSLELTTGATYRGKLVESEDSMNVQLRDVIATEPQGAVTHMDQIFVRGSQIKFIVVPDLLKNAPLFKKNS
B5: full-length Brr1, HT-tag removed (natural protein, S. cerevisiae, UniProt Q99177 1-341, looked up)
chain: T3 sequence (looked up) 1
B6: full-length Brr1 with N-terminal His6-TEV tag (natural protein, S. cerevisiae, UniProt Q99177 1-341, looked up)
chain: T3 sequence (looked up) 1

Assays:
[1] = biological target: B5; assay: SEC
[2] = biological target: B6; assay: pull-down
[3] = biological target: T1, Brr1Δ(122-197) with N-terminal His6-TEV …; assay: pull-down
[4] = biological target: T2, D1/D2/F/E/G pentamer (5Sm); assay: SEC
Brr1/5Sm heterohexamer = biological target: T3, Brr1/5Sm heterohexamer; assay: SEC
[5] = biological target: B2; assay: pull-down
[6] = biological target: T4, full-length Lot5 with N-terminal …; assay: pull-down
[7] = biological target: T2, D1/D2/F/E/G pentamer (5Sm); assay: pull-down

Row | binding result [4] | binding result [5] | binding result [6] | Binder | other results
1 | – | – | – | B1 | binding result [1]: binds; binding result [2]: binds; binding result [3]: binds
2 | binds | – | – | B2 | binding result (Brr1/5Sm heterohexamer): binds
3 | – | binds | binds | B3 | –
4 | – | binds | binds | B4 | –
5 | binds | – | – | B5 | –
6 | – | – | – | B6 | binding result [7]: binds
